Measurements taken from patent US20230288399A1 (FNCT BIOTECH, published 2023).
Positions count from the first letter of the chain named. Numbers in names are those of the source.

B1: intracellular adhesion molecule 1 (ICAM-1) (receptor)
chain: QTSVSPSKVILPRGGSVLVTCSTSCDQPKLLGIETPLPKKELLLPGNNRKVYELSNVQEDSQPMCYSNCPDGQSTAKTFLTVYWTPERVELAPLPSWQPVGKNLTLRCQVEGGAPRANLTVVLLRGEKELKREPAVGEPAEVTTTVLVRRDHHGANFSCRTELDLRPQGLELFENTSAPYQLQTFVLPATPPQLVSPRVLEVDTQGTVVCSLDGLFPVSEAQVHLALGDQRLNPTVTYGNDSFSAKASVSVTAEDEGTQRLTCAVILGNQSQETLQTVTIYSFPAPNVILTKPEVSEGTEVTVKCEAHPRAKVTLNGVPAQPLGPRAQLLLKATPEDNGRSFSCSATLEVAGQLIHKNQTRELRVLYGPRLDERDCPGNWTWPENSQQTPMCQAWGNPLPELKCLKDGTFPLPIGESVTVTRDLEGTYLCRARSTQGEVTRKVTVNVLSPRYEIVIITVVAAAVIMGTAGLSTYLYNRQRKIKKYRLQQAQKGTPMKPNTQATPP
notes: The assay used the endogenous protein of SW-480 and HCT-116 cells
B2: ICAM-1 Y512D mutant (receptor)
chain: B1 chain with Y485D

Experiments:
SRC [1] = target: T1, SRC (UniProt P12931 2-536); assay: co-immunoprecipitation in SW-480 and HCT-116 colorectal cancer cells
T1 construct: Endogenous protein in colorectal cancer cell lysates or cells; also called p-SRC (phosphorylated form)
From the text: As a result of performing immunoprecipitation to confirm the expression correlation between ICAM-1 and SRC in SW-480 and HCT-116 colorectal cancer cells, it was confirmed that ICAM-1 binds to SRC endogenously, as shown in FIG. 3D.

SRC [2] = target: T1, SRC; assay: immunoprecipitation with ICAM-1 Tyr512 mutants
Experimental: Furthermore, in order to confirm that ICAM-1 binds to SRC by a specific residue, an immunoprecipitation reaction was performed using a mutant with phosphomimetics form that inhibits (Y512A) or activates (Y512D) the Tyr512 phosphorylation residue of ICAM-1.

binding result (SRC [1]) | binding result (SRC [2]) | Binder
binds | – | B1
– | binds | B2
